Results reported in patent US10556936B2, “Immunogenic proteins and fragments thereof from allergenic mites” (ALK-ABELLÓ A/S, priority 2016, dated 2020).

Key:
Type in all cases: cell-based, human
[1] = test system: basophils in whole blood from HDM allergic donors; experiment: Basophil Activation Test (BAT); settings: blood from HDM allergic individuals (n=14)
How it was run: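 Basophil activation was read by flow cytometry as increased surface activation markers. The stimulus was a 1 h exposure of blood from 14 HDM-allergic donors to test proteins or major mite allergens at graded concentrations (e.g. 1–1000 ng/ml).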

[2] = test system: T cell lines obtained from HDM allergic individuals and non-allergics; experiment: In vitro T cell proliferation test in T cell lines (Example 3); settings: 0.5 or 2 ug/ml, 72 h; for % responders of in-vitro T cell proliferation test, Allergic: T cell lines from HDM allergic individuals (n=30); for % responders of in-vitro T cell proliferation test, Non-allergics: T cell lines from non-allergics (n=8)
How it was run: (§1)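 Freshly isolated PBMC (5×10^6/ml) from mite-allergic patients or non-allergics cultured 5 days with test protein up to 10 ug/ml; IFN-gamma, IL-9, IL-10, IL-17, IL-31 in supernatants by multiplex immunoassay. T cell lines, raised 3 weeks on HDM extract, tested at 0.5 or 2 ug/ml protein in 72 h proliferation assay.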

[3] = test system: PBMC cells obtained from mite allergic patients and non-allergics; experiment: Ex vivo stimulation of PBMC: cytokine production (IFN-gamma, IL-9, IL-10, IL-17, IL-31)
How it was run: as §1

B1: Derp2: major house dust mite allergen, group 2, Dermatophagoides pteronyssinus; control (protein, UniProt P49278 18-146, looked up)
Mite group 2 allergen Der p 2: DQVDVKDCANHEIKKVLVPGCHGSEPCIIHRGKPFQLEAVFEANQNTKTAKIEIKASIDGLEVDVPGIDPNACHYMKCPLVKGQQYDIKYTWNVPKIAPKSENVVVTVKVMGDDGVLACAIATHAKIRD
B1 was tested, and the “# of individuals of 14 with positive BAT test” value ([1]; 1 ng/ml) was 13, the “# of individuals of 14 with positive BAT test” value ([1]; 10 ng/ml) was 13 and the “# of individuals of 14 with positive BAT test” value ([1]; 100 ng/ml) was 13. For the same molecule, the “# of individuals of 14 with positive BAT test” value ([1]; 1000 ng/ml) was 13, the “% responders of in-vitro T cell proliferation test, Allergic” value [2] was 57% and the “% responders of in-vitro T cell proliferation test, Non-allergics” value (“% responders … Non-allergics” for short) [2] was 0%. The “% HDM allergic individuals with cytokine production in ex-vivo T cell assay IL-5” value [3] was 56%, the “% HDM allergic individuals with cytokine production in ex-vivo T cell assay IL-9” value [3] was 31% and the “% HDM allergic individuals with cytokine production in ex-vivo T cell assay IL-10” value [3] was 56%. For the same molecule, the “% HDM allergic individuals with cytokine production in ex-vivo T cell assay IL-13” value [3] was 50%, the “% HDM allergic individuals with cytokine production in ex-vivo T cell assay IL-17” value [3] was 0% and the “% HDM allergic individuals with cytokine production in ex-vivo T cell assay IL-31” value [3] was 6%. The “% HDM allergic individuals with cytokine production in ex-vivo T cell assay INF-g” value [3] was 0%, the “% non-allergic individuals with cytokine production in ex-vivo T cell assay IL-5” value [3] was 0% and the “% non-allergic individuals with cytokine production in ex-vivo T cell assay IL-9” value [3] was 0%. The “% non-allergic individuals with cytokine production in ex-vivo T cell assay IL-10” value [3] was 17%, the “% non-allergic individuals with cytokine production in ex-vivo T cell assay IL-13” value [3] was 0% and the “% non-allergic individuals with cytokine production in ex-vivo T cell assay IL-17” value [3] was 0%. For the same molecule, the “% non-allergic individuals with cytokine production in ex-vivo T cell assay IL-31” value [3] was 0% and the “% non-allergic individuals with cytokine production in ex-vivo T cell assay INF-g” value [3] was 0%.

B2: A001: house dust mite protein; SEQ ID NO: 13 (Der f), 14 (Der p); recombinant test protein (protein)
chain: KKSPDCDIERPIRECLKDGLLRYSSGQKINQFPDTIQDLNRACEELKKSETCARTFIDTCTESSYEKRSLDSLLDGIQRVMKRLCRSQTKKEKLLENVGCANSVVQDTKQCLKNYRMLVFAANKLDNKNKIMRILCCKSRKVAPCIGEAMKAKGTAVCSAKNIDYFKDVHQNIKQEMTAVVCSDFERDQCENVDVPNISESEYKDQNIFNPLRDLYKKVILG
In the case of B2, the “# of individuals of 14 with positive BAT test” value ([1]; 1 ng/ml) is reported as 0, the “# of individuals of 14 with positive BAT test” value ([1]; 10 ng/ml) is reported as 0 and the “# of individuals of 14 with positive BAT test” value ([1]; 100 ng/ml) is reported as 1. For the same molecule, the “# of individuals of 14 with positive BAT test” value ([1]; 1000 ng/ml) was 2, the “% responders of in-vitro T cell proliferation test, Allergic” value [2] was 17% and the “% responders … Non-allergics” value [2] was 0%. The “% HDM allergic individuals with cytokine production in ex-vivo T cell assay IL-5” value [3] was 6%, the “% HDM allergic individuals with cytokine production in ex-vivo T cell assay IL-9” value [3] was 0% and the “% HDM allergic individuals with cytokine production in ex-vivo T cell assay IL-10” value [3] was 75%. The “% HDM allergic individuals with cytokine production in ex-vivo T cell assay IL-13” value [3] was 6%, the “% HDM allergic individuals with cytokine production in ex-vivo T cell assay IL-17” value [3] was 25% and the “% HDM allergic individuals with cytokine production in ex-vivo T cell assay IL-31” value [3] was 0%. For the same molecule, the “% HDM allergic individuals with cytokine production in ex-vivo T cell assay INF-g” value [3] was 6%, the “% non-allergic individuals with cytokine production in ex-vivo T cell assay IL-5” value [3] was 0% and the “% non-allergic individuals with cytokine production in ex-vivo T cell assay IL-9” value [3] was 0%. The “% non-allergic individuals with cytokine production in ex-vivo T cell assay IL-10” value [3] was 100%, the “% non-allergic individuals with cytokine production in ex-vivo T cell assay IL-13” value [3] was 0% and the “% non-allergic individuals with cytokine production in ex-vivo T cell assay IL-17” value [3] was 50%. The “% non-allergic individuals with cytokine production in ex-vivo T cell assay IL-31” value [3] was 0% and the “% non-allergic individuals with cytokine production in ex-vivo T cell assay INF-g” value [3] was 0%.

B3: A003: house dust mite protein; SEQ ID NO: 2 (Der f), 3 (Der p), 305 (Blo t) (protein)
chain: MAIDGKYQMESSEHFEEFVKEMGLDVDMTNVDLSKTSTMEICKDGDVYHIKSETAGIAHEIKFKVGEEFEDDMNGHKFKNVVTMECDNKMVQKKTSADGGKVVNVVREFTDAGCTVKSTYNTVTWTRVYKRM
B3 was tested, and the “# of individuals of 14 with positive BAT test” value ([1]; 1 ng/ml) was 0, the “# of individuals of 14 with positive BAT test” value ([1]; 10 ng/ml) was 0 and the “# of individuals of 14 with positive BAT test” value ([1]; 100 ng/ml) was 0. For the same molecule, the “# of individuals of 14 with positive BAT test” value ([1]; 1000 ng/ml) was 1, the “% responders of in-vitro T cell proliferation test, Allergic” value [2] was 3% and the “% responders … Non-allergics” value [2] was 0%. The “% HDM allergic individuals with cytokine production in ex-vivo T cell assay IL-5” value [3] was 6%, the “% HDM allergic individuals with cytokine production in ex-vivo T cell assay IL-9” value [3] was 0% and the “% HDM allergic individuals with cytokine production in ex-vivo T cell assay IL-10” value [3] was 19%. For the same molecule, the “% HDM allergic individuals with cytokine production in ex-vivo T cell assay IL-13” value [3] was 13%, the “% HDM allergic individuals with cytokine production in ex-vivo T cell assay IL-17” value [3] was 13% and the “% HDM allergic individuals with cytokine production in ex-vivo T cell assay IL-31” value [3] was 0%. The “% HDM allergic individuals with cytokine production in ex-vivo T cell assay INF-g” value [3] was 0%, the “% non-allergic individuals with cytokine production in ex-vivo T cell assay IL-5” value [3] was 0% and the “% non-allergic individuals with cytokine production in ex-vivo T cell assay IL-9” value [3] was 0%. For the same molecule, the “% non-allergic individuals with cytokine production in ex-vivo T cell assay IL-10” value [3] was 17%, the “% non-allergic individuals with cytokine production in ex-vivo T cell assay IL-13” value [3] was 0% and the “% non-allergic individuals with cytokine production in ex-vivo T cell assay IL-17” value [3] was 17%. The “% non-allergic individuals with cytokine production in ex-vivo T cell assay IL-31” value [3] was 0% and the “% non-allergic individuals with cytokine production in ex-vivo T cell assay INF-g” value [3] was 0%.

B4: A007: house dust mite protein; SEQ ID NO: 30 (Der f), 31 (Der p), 306 (Blo t) (protein)
chain: MAKFNYLPVDVQEELRNTANAIVSVGKGILAADESTGTIGKRFADINVENVEQNRQAYRQLLFYSEGIEQYISGVILFDETVYQKDDKGVPFPELLKKKGIIPGIKVDTGVVTLQGTNGESTTQGLDNLTKRCQEYYNQGCRFAKWRCVLKIGQDEPSSLAIVENANVLARYASCCQQARIVPIVEPEILPDGDHNLERCQKVTETVLAAVYKALNDHHVYLEGTLLKPNMVTPGQSCPQKASPQEVAQATVTALQRTVPAAVPGIVFLSGGQSEEEASVNLNAINQYQGKKPWALSFSYGRALQASALRAWQGKPENIGAGQKELLQRAKANVLAHKGQYVAGSIPSLASAKSNFVAQHKY
B4 was tested, and the “# of individuals of 14 with positive BAT test” value ([1]; 1 ng/ml) was 0, the “# of individuals of 14 with positive BAT test” value ([1]; 10 ng/ml) was 0 and the “# of individuals of 14 with positive BAT test” value ([1]; 100 ng/ml) was 0. The “# of individuals of 14 with positive BAT test” value ([1]; 1000 ng/ml) was 0, the “% responders of in-vitro T cell proliferation test, Allergic” value [2] was 21% and the “% responders … Non-allergics” value [2] was 38%. The “% HDM allergic individuals with cytokine production in ex-vivo T cell assay IL-5” value [3] was 6%, the “% HDM allergic individuals with cytokine production in ex-vivo T cell assay IL-9” value [3] was 6% and the “% HDM allergic individuals with cytokine production in ex-vivo T cell assay IL-10” value [3] was 44%. For the same molecule, the “% HDM allergic individuals with cytokine production in ex-vivo T cell assay IL-13” value [3] was 19%, the “% HDM allergic individuals with cytokine production in ex-vivo T cell assay IL-17” value [3] was 38% and the “% HDM allergic individuals with cytokine production in ex-vivo T cell assay IL-31” value [3] was 0%. The “% HDM allergic individuals with cytokine production in ex-vivo T cell assay INF-g” value [3] was 31%, the “% non-allergic individuals with cytokine production in ex-vivo T cell assay IL-5” value [3] was 0% and the “% non-allergic individuals with cytokine production in ex-vivo T cell assay IL-9” value [3] was 0%. The “% non-allergic individuals with cytokine production in ex-vivo T cell assay IL-10” value [3] was 83%, the “% non-allergic individuals with cytokine production in ex-vivo T cell assay IL-13” value [3] was 0% and the “% non-allergic individuals with cytokine production in ex-vivo T cell assay IL-17” value [3] was 67%. For the same molecule, the “% non-allergic individuals with cytokine production in ex-vivo T cell assay IL-31” value [3] was 0% and the “% non-allergic individuals with cytokine production in ex-vivo T cell assay INF-g” value [3] was 33%.

B5: Derp1: major house dust mite allergen, group 1, Dermatophagoides pteronyssinus; control (protein, UniProt P08176 99-320, looked up)
Peptidase 1: TNACSINGNAPAEIDLRQMRTVTPIRMQGGCGSCWAFSGVAATESAYLAYRNQSLDLAEQELVDCASQHGCHGDTIPRGIEYIQHNGVVQESYYRYVAREQSCRRPNAQRFGISNYCQIYPPNVNKIREALAQTHSAIAVIIGIKDLDAFRHYDGRTIIQRDNGYQPNYHAVNIVGYSNAQGVDYWIVRNSWDTNWGDNGYGYFAANIDLMMIEEYPYVVIL
For B5, the “# of individuals of 14 with positive BAT test” value ([1]; 1 ng/ml) was 7, the “# of individuals of 14 with positive BAT test” value ([1]; 10 ng/ml) was 10 and the “# of individuals of 14 with positive BAT test” value ([1]; 100 ng/ml) was 10. For the same molecule, the “# of individuals of 14 with positive BAT test” value ([1]; 1000 ng/ml) was 10, the “% responders of in-vitro T cell proliferation test, Allergic” value [2] was 73% and the “% responders … Non-allergics” value [2] was 13%. For the same molecule, the “% HDM allergic individuals with cytokine production in ex-vivo T cell assay IL-5” value [3] was 50%, the “% HDM allergic individuals with cytokine production in ex-vivo T cell assay IL-9” value [3] was 6% and the “% HDM allergic individuals with cytokine production in ex-vivo T cell assay IL-10” value [3] was 50%. For the same molecule, the “% HDM allergic individuals with cytokine production in ex-vivo T cell assay IL-13” value [3] was 50%, the “% HDM allergic individuals with cytokine production in ex-vivo T cell assay IL-17” value [3] was 6% and the “% HDM allergic individuals with cytokine production in ex-vivo T cell assay IL-31” value [3] was 0%. The “% HDM allergic individuals with cytokine production in ex-vivo T cell assay INF-g” value [3] was 0%, the “% non-allergic individuals with cytokine production in ex-vivo T cell assay IL-5” value [3] was 0% and the “% non-allergic individuals with cytokine production in ex-vivo T cell assay IL-9” value [3] was 0%. The “% non-allergic individuals with cytokine production in ex-vivo T cell assay IL-10” value [3] was 17%, the “% non-allergic individuals with cytokine production in ex-vivo T cell assay IL-13” value [3] was 0% and the “% non-allergic individuals with cytokine production in ex-vivo T cell assay IL-17” value [3] was 17%. For the same molecule, the “% non-allergic individuals with cytokine production in ex-vivo T cell assay IL-31” value [3] was 0% and the “% non-allergic individuals with cytokine production in ex-vivo T cell assay INF-g” value [3] was 0%.
